Our source for the Kd values is US20190062438A1 (CSL, published 2019).

Holding throughout (assay): SPR, kinetics, Fab over captured mutant
One assay addresses T1, shCD131 S41A (human, UniProt P32927 17-438).
T1 construct: C-terminal 6xHis
T1 sequence: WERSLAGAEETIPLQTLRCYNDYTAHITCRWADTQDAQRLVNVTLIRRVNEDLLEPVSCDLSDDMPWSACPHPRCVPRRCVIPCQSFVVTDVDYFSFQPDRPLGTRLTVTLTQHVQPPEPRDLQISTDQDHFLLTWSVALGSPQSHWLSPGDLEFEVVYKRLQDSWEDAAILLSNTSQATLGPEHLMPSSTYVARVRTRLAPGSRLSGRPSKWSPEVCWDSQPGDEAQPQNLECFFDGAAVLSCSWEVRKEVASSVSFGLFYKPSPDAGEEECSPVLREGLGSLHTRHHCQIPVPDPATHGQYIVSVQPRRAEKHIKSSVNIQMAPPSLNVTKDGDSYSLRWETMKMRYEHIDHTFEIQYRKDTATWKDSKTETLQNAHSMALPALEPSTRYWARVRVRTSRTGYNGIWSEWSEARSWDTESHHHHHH

The next assay concerns the target T2, shCD131 T419A (human, UniProt P32927 17-438).
T2 construct: C-terminal 6xHis
T2 sequence: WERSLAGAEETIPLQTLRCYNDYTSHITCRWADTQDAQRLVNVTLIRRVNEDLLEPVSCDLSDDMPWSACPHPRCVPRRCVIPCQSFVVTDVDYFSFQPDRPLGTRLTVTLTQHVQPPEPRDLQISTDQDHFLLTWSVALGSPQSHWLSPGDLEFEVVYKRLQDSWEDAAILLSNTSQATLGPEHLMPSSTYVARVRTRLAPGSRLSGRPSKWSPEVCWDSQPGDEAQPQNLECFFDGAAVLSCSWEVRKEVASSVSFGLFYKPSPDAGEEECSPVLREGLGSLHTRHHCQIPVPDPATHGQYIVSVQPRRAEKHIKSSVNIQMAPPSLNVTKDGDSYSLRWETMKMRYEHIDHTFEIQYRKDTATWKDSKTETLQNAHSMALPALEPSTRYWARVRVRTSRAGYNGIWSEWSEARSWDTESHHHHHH

The target of the next assay is T3, shCD131 Y421A (human, UniProt P32927 17-438).
T3 construct: C-terminal 6xHis
T3 sequence: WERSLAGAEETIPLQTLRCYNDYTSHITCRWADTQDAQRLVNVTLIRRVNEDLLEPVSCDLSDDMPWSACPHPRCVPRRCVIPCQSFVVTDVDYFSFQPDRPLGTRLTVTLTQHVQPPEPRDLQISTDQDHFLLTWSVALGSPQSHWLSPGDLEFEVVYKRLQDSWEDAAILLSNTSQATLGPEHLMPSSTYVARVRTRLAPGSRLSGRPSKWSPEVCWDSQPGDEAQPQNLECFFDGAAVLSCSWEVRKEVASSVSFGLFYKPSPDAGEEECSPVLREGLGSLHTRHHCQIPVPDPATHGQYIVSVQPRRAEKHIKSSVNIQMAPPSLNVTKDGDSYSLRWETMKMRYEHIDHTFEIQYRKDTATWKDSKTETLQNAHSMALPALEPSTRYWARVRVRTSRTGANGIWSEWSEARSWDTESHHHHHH

The target in the next assay is T4, shCD131 I424A (human, UniProt P32927 17-438).
T4 construct: C-terminal 6xHis; also called 1424A
T4 sequence: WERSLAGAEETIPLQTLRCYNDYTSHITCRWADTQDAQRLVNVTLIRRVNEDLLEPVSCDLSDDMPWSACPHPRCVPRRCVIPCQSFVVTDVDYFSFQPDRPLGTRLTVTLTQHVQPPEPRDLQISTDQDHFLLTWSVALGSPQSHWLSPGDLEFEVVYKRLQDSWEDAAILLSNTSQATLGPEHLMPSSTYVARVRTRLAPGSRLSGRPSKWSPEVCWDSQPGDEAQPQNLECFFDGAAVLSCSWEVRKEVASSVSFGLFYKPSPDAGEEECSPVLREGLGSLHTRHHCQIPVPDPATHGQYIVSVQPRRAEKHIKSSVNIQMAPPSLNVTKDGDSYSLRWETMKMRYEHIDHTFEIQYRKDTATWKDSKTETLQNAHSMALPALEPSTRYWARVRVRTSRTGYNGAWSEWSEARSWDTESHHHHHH

B1: 9A2 Fab (Fab, V domains shown)
VH: EVQLLESGGGLVQPGGSLRLSCAASGFTFSHYHMLWVRQAPGKGLEWVSSIRSSGGFTYYADSVKGRFTISRDNSKNTLYLQMNSLRAEDTAVYYCARFYDSFFDIWGQGTMVTVSS
VL: DIQMTQSPSSVSASVGDRVTITCRASQGISSWLAWYQQKPGKAPKLLIYAASSLQSGVPSRFSGSGSGTDFTLTISSLQPEDFATYYCQQANSFPITFGQGTRLEIKR
notes: also called recombinant Fab of 9A2
What is called Kd is the free concentration of one partner at which half of the binding sites on the other are occupied at equilibrium, for simple one-to-one binding. With B1, the dissociation constant (Kd) worked out at 56 nM in the assay with shCD131 S41A, 53 nM with shCD131 T419A, 167 nM with shCD131 Y421A and 126 nM with shCD131 I424A.
